# Test results: paper PMC3867821
# Target: KLF4 (UniProt Q60793)
# Experiment: anti-HA co-IP, STAT3 blot
# Details: reference: wild-type FLAG-STAT3; sites Y705
substance,measurement,value
STAT3 (from UniProt P42227) Y705F,binding against the reference,lost
